From the DeepSol protein solubility set

Assay: soluble on expression in E. coli; label from the status in PepcDB or PDB records

Row | Sequence | soluble on expression in E. coli
1 | MSLTELSAFPITRKWPAKHPERLQLYSLPTPNGVKVSIMLEEIGLAYEAHKVSFDNDDQLSPEFISLSANNKIPAILDPNGPGGQPLALFESGAILQYLAEKSGQLLSQDPAQRYQTLQWLMFQMGGIGPMFGQVGFFHFFAGKEYEDKRPRDRYVNESKRLLGVLDRHLKGRQWMAEEYSIADIAIFPWVRNLVERYNARDLVGFDQFKEVQRVLANFLERPAVQRGLKIPGEGHHHHHH | soluble
2 | MGSDKIHHHHHHMHKVMISRIKGTQDIAFEDIDYWHFAEEIIRNISHKYAFTEIRTPIFEATELFKRSVGESTDVVQKEMYTFEDKGGRSITLRPEGTASVARAFIENSFINLGSPVKLFYSGPMFRYEKPQAGRLRQFHQFGAEILGSESPLADFEIIEMAYSFLKELKINNAKLFINSIGCPACREDYKTALKEYYSDKLAGMCPDCQRRYETNVLRLLDCKIDKGLVQGAPGILDYLDSDCRSHFEELQWYLERAGIDYEVDQFLVRGLDYYTRTAFEIRSSSLGSQDQLVGGGRYDGLVEYIGGKSCPAVGFAIGLERIVMLLKSENVRINGPETSEVAILTFGREESVRGFDYAKRLRKMGVSTFVDVMERNMRNKMKHASRIGAKISLLIGKEEIERDIVTIKVMNDGSQFQVDSDYMADYVVDKLRDIS | not soluble
3 | LLRMHESLARRQLAEVERLDLVRQVRELIGELLVDGGATLEQVAARLGMPARRLRERLAMAGVRFNDLVTDYRCRLAKE | not soluble
4 | MYLKETLDQFTSINNILKLLKKSPGFNKYCIQERLPKETVITSDKRRKYIYIIEDGFMKLVFEGTNKHNFSYILQKGAFPHLPVYTEDIPKHMMLIALTDVVWWKIEFQFFKEMMELEDPRNYIMLHQLAETRRRLYIIAVQEKLSSRESIYFSLNTMIDYGLRVSEKAVELPKFLTYQILADNSNTSKSYTSKVLSNLREKGILESQKKPWRINDVQKLQELIDAEALLAIL | not soluble
5 | MGPAPRILELFYDVLSPYSWLGFEVLCRYQHLWNIKLQLRPTLIAGIMKDSGNQPPAMVPRKGQYIFKEIPLLKQFFQVPLNIPKDFFGETVKKGSINAMRFLTTVSMEQPEMLEKVSREIWMRVWSRDEDITEYQSILAAAVKAGMSTAQAQHFLEKISTQQVKNKLIENTDAACKYGAFGLPTTVAHVDGKTYMLFGSDRLELLAYLLGEKWMGPVPPTANARL | soluble
6 | MSLTNSDWMPTASISQLKQRATLLRQIREFFAERNVLEVETPAMSHATVTDIHLHTFKTEFVGPGYAKGSALHLMTSPEFHMKRLLAAGSGCIYQLGKAFRNEENGRYHNPEFTMLEWYRIGFDHHALMDEMDALLQLVLRCGSAERMTYQEAFLNVLGVCPLEEEMRELKQVAATLGLSDIAEPEEDRDTLLQLLFSIGIEPKIGQITPAFVYDFPASQAALAKINPADPRVADRFEVYFKGIELANGFHELDNPAEQLARFKADNAKRLEMGLTEQPIDYHLIAALEAGLPECAGVALGIDRLIMLALGEDHIDKVTAFPFPRAEGHHHHHH | soluble
7 | MGSDKIHHHHHHENLYFQGMKKVFITTGTEHYLRQLMENYIGENVTLLQNFSQSLLYQESTGEKLFQEGKEYRVLQSSGSLKGFGIVVFEYIQLRDEEIPIFLQMYQHASLHFSETPGLQSTKLTKAMNTNQFLIVSFWDSEVFFQEWKKTPLHKEITSIMKKNNTQVGFSHEDIYHYPEFSHDAK | soluble
8 | VYNYMVDDTRSQLSIFMDEIAAQLEVDHTGHLSLAAQLSDPRFSRPYSGLYWSASTDSSLERSRSLWDKRIEYKGLDKDAYGARDEKLITLEKALYLPDYDGPIHIIVGIDEEPIKSTLQ | not soluble
9 | MGSDKIHHHHHHMSLSRLSIDAFRNIDSAQLAPGAGLNLIYGHNGSGKTSILEAIYFLGMGRSFRSHLSQRVIQNDADCLTLFAVAEGQAGDSRIGLRRHRSGDTEVKIDGEKVKRLSQLAEALPIQVITPESFSLLFEGPSARRQFIDWGAFHASKQFHLAWMNTRRILKQRNQLLRDGASYEHIAFWDKELIRYALEVTAIRNDYVGSLNGVLKGIIGEFLPDVDIRVSFTRGWDSKTDFSELLQSQYARDLAIGHTVSGPHKADLRLRVGNLPAQDALSRGQLKLLVCALRIAQGKLLKQQIDKHSIYLVDDLPSELDAKHRQLLLKELIDTGAQLFVTAIEPSAIVDSLPVPPDRMFHVQAGRVTQTK | not soluble
10 | MGSDKIHHHHHHMKHSDYSLIPTFVAIVEEKSYTKAAKRLGISQSAVSQGVTRLQAVFKDTLFIRGSRGVEPTQFSLDIYPTLASSVENIAFMMPEYKKFSAVKCEKQFVISSLSVFGFTILPPLSALMSQHAPLASVKIEPLNNHDFTNMLRSQHFDLVIDAHSNQYPQLRSKVIMEDTLCVMCRIDHPRLSGDSISIDEFLAEKHVTHSQLDQKGGYLSGKGLKEDEILNQRKIAWQAASIMEMLPVIECCDYIALLPQRLVDKYRHIYQLKQLHSNFLLDPIKVAMYWHSSRTNDPSHKWLREQIVKVTQQFNKL | not soluble
11 | MSLTAQIRLAEPADLNDDTLRARAVAAARGDQRFDVLITGGTLVDVVTGELRPADIGIVGALIASVHEPASRRDAAQVIDAGGAYVSPGLIDTHMHIESSMITPAAYAAAVVARGVTTIVWDPHEFGNVHGVDGVRWAAKAIENLPLRAILLAPSCVPSAPGLERGGADFDAAILADLLSWPEIGGIAEIMNMRGVIERDPRMSGIVQAGLAAEKLVCGHARGLKNADLNAFMAAGVSSDHELVSGEDLMAKLRAGLTIELRGSHDHLLPEFVAALNTLGHLPQTVTLCTDDVFPDDLLQGGGLDDVVRRLVRYGLKPEWALRAATLNAAQRLGRSDLGLIAAGRRADIVVFEDLNGFSARHVLASGRAVAEGGRMLVDIPTCDTTVLKGSMKLPLRMANDFLVKSQGAKVRLATIDRPRFTQWGETEADVKDGFVVPPEGATMISVTHRHGMAEPTTKTGFLTGWGRWNGAFATTVSHDSHNLTVFGGNAGDMALAANAVIGTGGGMAVASEGKVTAILPLPLSGLVSDAPLEEVARAFEDLREAVGKVVEWQPPYLVFKACFGATLACNIGPHQTDMGIADVLTGKVMESPVIEVLGEGHHHHHH | soluble
12 | MSLSSVYTMKRIWLQKDKKAYQAWHELMEKAELQTTEALDYTVGIYDDTALIASGSLSGKTIKCVAVCKKYQSENLLTQLVVHLLEKLREENQLHSFLYTKPKNEQIFQSLGFQKVVANQEVLFMEQGKPDFADYLGYLTQHKKAGPASSIVMNANPFTKGHQYLVEKAAQESPHVYVFVLSEDKSLFSKEARFAMVQKGVAHLPNVTVLSTEDYLVSSATFPTYFLKEKAPLEVAAIQATLDATLFKERIAPILEIQQRYVGEEPYSEVTAVYNQAMQQVFGQTITLTIVPRLASDGELISATKVRKAMAEGDKETLKKFLPATSYQYLVEHKKLMREGGSHHHHHH | soluble
13 | MIGKEEIHRIRELIGAKEGPVLSLYVDVNPAKPENAGRAYALRAKDAIKALEVPGDLSERVLEVLQNQVLEARTAVFFAGEDLFEVLPLQVELPLVNSVKTAFLDEKAGRYLVDGVLAHWGEPFLLPLVYALDEYERYGIVYVDRERWRVFEVFLGEIEEVHDAFLALDTEAWRRLSLDAPGRRFNLGGIARGGAGQDLFAKRLEAWEERFYKALAHELERLSEARGFTRLVLMGPEEHTKLFLGHLPKRLRERVVAELPSLPHPGASPGEVLKRLEPVLEEVERREEVKLLERLEEAYPKAAFGPEVLARVQEGRVEVWVLPWHLEQEVYLCQDFAFADEAQALAYCESPEKKPLAAVLASLAVGYATKLEFVRGEAENRLLERGGMAALLRW | soluble
14 | MEPLSHRGLPRLSWIDTLYSNFSYGTDEYDGEGNEEQKGPPEGSETMPYIDESPTMSPQLSARSQGGGDGVSPTPPEGLAPGVEAGKGLEMRKLVLSGFLASEEIYINQLEALLLPMKPLKATATTSQPVLTIQQIETIFYKIQDIYEIHKEFYDNLCPKVQQWDSQVTMGHLFQKLASQLGVYKAFVDNYKVALETAEKCSQSNNQFQKISEELKVKGPKDSKDSHTSVTMEALLYKPIDRVTRSTLVLHDLLKHTPVDHPDYPLLQDALRISQNFLSSINEDIDPRRTAVTTPKGETRQLVKDGFLVEVSESSRKLRHVFLFTDVLLCAKLKKTSAGKHQQYDCKWYIPLADLVFPSPEESEASPQVHPFPDHELEDMKMKISALKSEIQKEKANKGQSRAIERLKKKMFENEFLLLLNSPTIPFRIHNRNGKSYLFLLSSDYERSEWREAIQKLQKKDLQAFVLSSVELQVLTGSCFKLRTVHNIPVTSNKDDDESPGLYGFLHVIVHSAKGFKQSANLYCTLEVDSFGYFVSKAKTRVFRDTAEPKWDEEFEIELEGSQSLRILCYEKCYDKTKVNKDNNEIVDKIMGKGQIQLDPQTVETKNWHTDVIEMNGIKVEFSMKFTSRDMSLKRTPSKKQTGVFGVKISVVTKRERSKVPYIVRQCVEEVEKRGIEEVGIYRISGVATDIQALKAVFDANNKDILLMLSDMDINAIAGTLKLYFRELPEPLLTDRLYPAFMEGIALSDPAAKENCMMHLLRSLPDPNLITFLFLLEHLKRVAEKEPINKMSLHNLATVFGPTLLRPSEVESKAHLTSAADIWSHDVMAQVQVLLYYLQHPPISFAELKRNTLYFSTDV | soluble
15 | MLAVSGLARSTFFDHQRRLDKPDKYADLKEQITTIFHDSNATFGYRRIWRALRNNNTIVNKKVVQRLMREQGLVSKIRRKKYNSYRGTVSHIADNVLGRRFIQDAPNKVWVSDVTEFRVAGTKVYLSPVMDLFDRTILAHTLSTSPNTQLTSRSLADAIAMFSPGKGLIVHTDQGFQYQHASWRTLIKSVGGVQSMSRKGNCYDNAVMENFFGHLKSEMYYGASFTSVDELCQAIDEYILWYNTYRLQERFKGLAPMQYRNQTLAKTLTV | not soluble
16 | MSLSQPQPPSRLLVMKFGGTNMQSAHAIRHSASLAGRSVREGVKVVVVVSAMAGVTNGLLHLADAAQSGDIARANDEIAALRTRHFTAAQELGAAPDSETVRELRELHETLRQAVYGVYLLRELTPRSRDLIVAFGERLSAPLMSLALEQSGLRARHLTGGEAGILTDTNFGNARPLPGTYERVGDRLSGFLSAGVTPVIAGFMGETEQGAITTLGRGGTDFSATIVGKALGADEVWAWKDVDGVMSADPRVVGDASNIGVLSYGEVMELAYFGAKVLHPLAVTPLQDSGIPLRVKSAADPDFAGTLVRSQAEEIPGRPVKAVTAIKNVSLLTVTGAGVLGVPEVIASVFTAIARENITLLMVSQSSSMSNVSLAVPSADAARALQALRAGLSSELNVEETNGVAVLAIVGSGMRGQQGVSARLFTALASEDINILMISQGSSELNISVALSGEEVDRATAAVHAAFTLSQPEGHHHHHH | not soluble
17 | MEDKATQTPEQTFSMEAALQETEARLEKRVRPGQILTGKVVLVGSEGVAVDIGAKTEGIIPFNQLTTKPLSEEELRNLLSPGDEVKVQVLRVDPETGQILLSRKKIEAQEKWDRIQELYEKGEPVTVTIKERVKGGVVAELDGVQGFMPASQLDLRRVPNLDEFVGQQVLAKIIEFHRRKGRVILSRRAVLEEEQKKAREAFLKSLEPGQVVEGTVVEVTDFGVFVNLGPVDGLVHRSEITWGRFNHPREVIQKGQKVKAQVLSVDPEKERVNLSIKALIPDPWTTVAEKYPVGTRVRGKVVGLTQFGAFVEVEPGLEGLIHISELSWTKRPKHPSEVVKEGDEVEAVVLRLDPEERRLSLGLKQTQPDPWQQLTEKYPPGTVLKGKVTGVTDFGVFVEIEPGIEGLVHVSELDHKRVENPAALFKKGDEMEVVVLNIDPVEQRVSLSRKRLLPPPLPQEEERPRRARSGKERARRKGAPRREDRREYEYGAVAEYNLYDASSVPTTTATVKLGDLYGDLLASLGLEEEAEEKSRG | soluble
